In patent US20130102527A1:

How the values were obtained:
[1] = target: proteasome β5 subunit (chymotrypsin-like site) in human cells and cell extracts (human) (UniProt P28074); assay: competition with activity-based probe in living HEK-293 cells, 4 h; Chym-L site
[2] = target: proteasome β2 subunit (trypsin-like site) in human cells and cell extracts (human) (UniProt Q99436); assay: competition with activity-based probe in living HEK-293 cells, 4 h; Tr-L site
[3] = target: caspase-like site (β1 subunit) of yeast 20S proteasome (S. cerevisiae) (UniProt P38624); assay: cell-based or functional assay
[4] = target: trypsin-like site (β2 subunit) of 26S proteasomes purified from rabbit muscle (rabbit) (UniProt G1SWK8); assay: cell-based or functional assay
[5] = target: chymotrypsin-like site (β5 subunit) of 26S proteasomes purified from rabbit muscle (rabbit) (UniProt G1T4Q9); assay: cell-based or functional assay
[6] = target: proteasome β1 subunit (caspase-like site) in human cells and cell extracts (human) (UniProt P28072); assay: cell-based or functional assay
[7] = target: proteasome β5 subunit (chymotrypsin-like site) in human cells and cell extracts (human) (UniProt P28074); assay: cell-based or functional assay
[8] = target: proteasome β2 subunit (trypsin-like site) in human cells and cell extracts (human) (UniProt Q99436); assay: cell-based or functional assay
[9] = target: caspase-like site (β1 subunit) of 26S proteasomes purified from rabbit muscle (rabbit); assay: cell-based or functional assay

Chain of proteasome β2 subunit (trypsin-like site) in human cells and cell extracts (human) (Q99436 44-277): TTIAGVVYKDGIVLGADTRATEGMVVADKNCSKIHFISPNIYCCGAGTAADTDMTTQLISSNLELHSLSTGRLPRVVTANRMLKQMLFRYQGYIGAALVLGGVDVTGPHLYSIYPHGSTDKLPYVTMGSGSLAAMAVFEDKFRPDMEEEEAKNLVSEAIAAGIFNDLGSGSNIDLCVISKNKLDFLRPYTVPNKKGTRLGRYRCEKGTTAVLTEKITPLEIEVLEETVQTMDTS
Chain of proteasome β5 subunit (chymotrypsin-like site) in human cells and cell extracts (human) (P28074 60-263): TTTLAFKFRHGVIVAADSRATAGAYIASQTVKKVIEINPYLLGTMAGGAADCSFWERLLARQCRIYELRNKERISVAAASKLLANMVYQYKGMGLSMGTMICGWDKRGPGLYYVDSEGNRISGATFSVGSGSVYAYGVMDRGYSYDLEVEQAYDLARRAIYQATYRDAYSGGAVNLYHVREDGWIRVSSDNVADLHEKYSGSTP
Chain of trypsin-like site (β2 subunit) of 26S proteasomes purified from rabbit muscle (rabbit) (G1SWK8 entry or part of it): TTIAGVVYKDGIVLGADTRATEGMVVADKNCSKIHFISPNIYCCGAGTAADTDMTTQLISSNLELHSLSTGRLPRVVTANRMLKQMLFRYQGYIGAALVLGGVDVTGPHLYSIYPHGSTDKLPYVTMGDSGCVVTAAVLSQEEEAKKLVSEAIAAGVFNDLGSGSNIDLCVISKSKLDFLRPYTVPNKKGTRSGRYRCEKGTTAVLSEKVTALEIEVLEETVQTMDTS
Chain of proteasome β1 subunit (caspase-like site) in human cells and cell extracts (human) (P28072 35-239): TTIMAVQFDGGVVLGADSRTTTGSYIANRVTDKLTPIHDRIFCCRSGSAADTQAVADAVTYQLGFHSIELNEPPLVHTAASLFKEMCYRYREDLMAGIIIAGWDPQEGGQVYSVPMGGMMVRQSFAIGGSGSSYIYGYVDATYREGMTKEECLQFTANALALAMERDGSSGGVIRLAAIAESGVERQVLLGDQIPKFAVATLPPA
Chain of chymotrypsin-like site (β5 subunit) of 26S proteasomes purified from rabbit muscle (rabbit) (G1T4Q9 entry or part of it): as the sequence (P28074 60-263) above, with E197D counted along it
Chain of caspase-like site (β1 subunit) of yeast 20S proteasome (S. cerevisiae) (P38624 20-215): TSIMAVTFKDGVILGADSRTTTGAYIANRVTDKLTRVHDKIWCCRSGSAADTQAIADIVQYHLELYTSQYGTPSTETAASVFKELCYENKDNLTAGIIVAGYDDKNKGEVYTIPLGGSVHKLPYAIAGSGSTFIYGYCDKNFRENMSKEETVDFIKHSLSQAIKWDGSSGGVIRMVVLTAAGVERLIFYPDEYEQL

**Q.** What does the source list for “N3-Phe-Phe(4-CH2NH2)-Leu-Phe(4-CH2NH2)-VS (52) (peptide)”?
**A.** IC50 [1]: > 50 µM; IC50 [2]: 50 µM; inhibition of caspase-like sites of yeast 20S proteasome [3]: > 200 µM; IC50 (µM) for sites: Tr-L [4]: 0.0066 µM; IC50 (µM) for sites: Chym-L [5]: 3.9 µM

**Q.** Which results are given for “N3-Phe-Phe(4-NH2.TFA)-Leu-Phe(4-CH2NH2.TFA)-VS (51) (peptide)”?
**A.** IC50 [1]: > 50 µM; IC50 [2]: 10 µM; IC50 (µM) for sites: Casp-L; NCI-H929 cells, 6 h, PROTEASOMEGLO [6]: 22 µM; IC50 (µM) for sites: Casp-L; RPMI-8226 cells, 6 h, PROTEASOMEGLO [6]: > 30 µM; IC50 (µM) for sites: Chym-L; NCI-H929 cells, 6 h, PROTEASOMEGLO [7]: 3.6 µM; IC50 (µM) for sites: Chym-L; RPMI-8226 cells, 6 h, PROTEASOMEGLO [7]: 7.2 µM; IC50 (µM) for sites: Tr-L [4]: 0.03 µM; IC50 (µM) for sites: Tr-L; NCI-H929 cells, 6 h, PROTEASOMEGLO [8]: 0.11 µM; IC50 (µM) for sites: Tr-L; RPMI-8226 cells, 6 h, PROTEASOMEGLO [8]: 0.58 µM; IC50 (µM) for sites: Chym-L [5]: 3.4 µM; IC50 (µM) for sites: Casp-L [9]: 30 µM

**Q.** With NC-022 (HMB-Val-Ser-Arg-ek) (peptide) as the substance, how does the IC50 (µM) for sites: Tr-L; NCI-H929 cells, 6 h, PROTEASOMEGLO [8] read?
**A.** The IC50 (µM) for sites: Tr-L; NCI-H929 cells, 6 h, PROTEASOMEGLO was 0.9 µM.

**Q.** And the IC50 (µM) for sites: Tr-L; RPMI-8226 cells, 6 h, PROTEASOMEGLO [8]?
**A.** Its IC50 (µM) for sites: Tr-L; RPMI-8226 cells, 6 h, PROTEASOMEGLO is 24 µM.

**Q.** What about the inhibition of the trypsin-like sites at 3 µM NC-022 within 4-6 hours, NCI-H929 cells [8] of the same substance?
**A.** Its inhibition of the trypsin-like sites at 3 µM NC-022 within 4-6 hours, NCI-H929 cells is 90%.

**Q.** What about the inhibition of trypsin-like activity 5 hours after NC-022 addition, NCI-H929 and KMS-12-BM cells [8] of the same substance?
**A.** The inhibition of trypsin-like activity 5 hours after NC-022 addition, NCI-H929 and KMS-12-BM cells was > 90%.

**Q.** And the inhibition of trypsin-like activity after a 6-hour incubation, MM cell lines [8]?
**A.** Its inhibition of trypsin-like activity after a 6-hour incubation, MM cell lines is > 90%.

**Q.** How did the Inhibition of active sites (% control): Chymotrypsin-like sites, 1 h; KMS-12-BM, 11 nM carfilzomib [7] turn out when carfilzomib (peptide) was run?
**A.** Its Inhibition of active sites (% control): Chymotrypsin-like sites, 1 h; KMS-12-BM, 11 nM carfilzomib is 75%.

**Q.** And the Inhibition of active sites (% control): Chymotrypsin-like sites, 1 h; KMS-12-BM, 33 nM carfilzomib [7]?
**A.** Its Inhibition of active sites (% control): Chymotrypsin-like sites, 1 h; KMS-12-BM, 33 nM carfilzomib is 90%.

**Q.** And the Inhibition of active sites (% control): Chymotrypsin-like sites, 1 h; KMS-12-BM, 100 nM carfilzomib [7]?
**A.** The Inhibition of active sites (% control): Chymotrypsin-like sites, 1 h; KMS-12-BM, 100 nM carfilzomib was 95%.

**Q.** And the Inhibition of active sites (% control): Chymotrypsin-like sites, 1 h; KMS-12-BM, 300 nM carfilzomib [7]?
**A.** Its Inhibition of active sites (% control): Chymotrypsin-like sites, 1 h; KMS-12-BM, 300 nM carfilzomib is 97%.

**Q.** And the Inhibition of active sites (% control): Chymotrypsin-like sites, 1 h; KMS-12-BM, 900 nM carfilzomib [7]?
**A.** Its Inhibition of active sites (% control): Chymotrypsin-like sites, 1 h; KMS-12-BM, 900 nM carfilzomib is 98%.

**Q.** And the Inhibition of active sites (% control): Chymotrypsin-like sites, 1 h; NCI-H929, 3.7 nM carfilzomib [7]?
**A.** The Inhibition of active sites (% control): Chymotrypsin-like sites, 1 h; NCI-H929, 3.7 nM carfilzomib was 14%.

**Q.** What about the Inhibition of active sites (% control): Chymotrypsin-like sites, 1 h; NCI-H929, 11 nM carfilzomib [7] of the same substance?
**A.** Its Inhibition of active sites (% control): Chymotrypsin-like sites, 1 h; NCI-H929, 11 nM carfilzomib is 39%.

**Q.** And the Inhibition of active sites (% control): Chymotrypsin-like sites, 1 h; NCI-H929, 33 nM carfilzomib [7]?
**A.** The Inhibition of active sites (% control): Chymotrypsin-like sites, 1 h; NCI-H929, 33 nM carfilzomib was 75%.

**Q.** And the Inhibition of active sites (% control): Chymotrypsin-like sites, 6 h -NC-022; KMS-12-BM, 11 nM carfilzomib [7]?
**A.** Its Inhibition of active sites (% control): Chymotrypsin-like sites, 6 h -NC-022; KMS-12-BM, 11 nM carfilzomib is 67%.

**Q.** And the Inhibition of active sites (% control): Chymotrypsin-like sites, 6 h -NC-022; KMS-12-BM, 33 nM carfilzomib [7]?
**A.** The Inhibition of active sites (% control): Chymotrypsin-like sites, 6 h -NC-022; KMS-12-BM, 33 nM carfilzomib was 97%.

**Q.** What about the Inhibition of active sites (% control): Chymotrypsin-like sites, 6 h -NC-022; KMS-12-BM, 100 nM carfilzomib [7] of the same substance?
**A.** The Inhibition of active sites (% control): Chymotrypsin-like sites, 6 h -NC-022; KMS-12-BM, 100 nM carfilzomib was 97%.

**Q.** What about the Inhibition of active sites (% control): Chymotrypsin-like sites, 6 h -NC-022; KMS-12-BM, 300 nM carfilzomib [7] of the same substance?
**A.** The Inhibition of active sites (% control): Chymotrypsin-like sites, 6 h -NC-022; KMS-12-BM, 300 nM carfilzomib was 97%.

**Q.** And the Inhibition of active sites (% control): Chymotrypsin-like sites, 6 h -NC-022; KMS-12-BM, 900 nM carfilzomib [7]?
**A.** Its Inhibition of active sites (% control): Chymotrypsin-like sites, 6 h -NC-022; KMS-12-BM, 900 nM carfilzomib is 97%.

**Q.** And the Inhibition of active sites (% control): Chymotrypsin-like sites, 6 h -NC-022; NCI-H929, 3.7 nM carfilzomib [7]?
**A.** Its Inhibition of active sites (% control): Chymotrypsin-like sites, 6 h -NC-022; NCI-H929, 3.7 nM carfilzomib is 65.5%.

**Q.** What about the Inhibition of active sites (% control): Chymotrypsin-like sites, 6 h -NC-022; NCI-H929, 11 nM carfilzomib [7] of the same substance?
**A.** The Inhibition of active sites (% control): Chymotrypsin-like sites, 6 h -NC-022; NCI-H929, 11 nM carfilzomib was 89%.

**Q.** What about the Inhibition of active sites (% control): Chymotrypsin-like sites, 6 h -NC-022; NCI-H929, 33 nM carfilzomib [7] of the same substance?
**A.** The Inhibition of active sites (% control): Chymotrypsin-like sites, 6 h -NC-022; NCI-H929, 33 nM carfilzomib was 95%.

**Q.** What about the Inhibition of active sites (% control): Trypsin-like sites, 1 h; KMS-12-BM, 11 nM carfilzomib [8] of the same substance?
**A.** Its Inhibition of active sites (% control): Trypsin-like sites, 1 h; KMS-12-BM, 11 nM carfilzomib is -3%.

**Q.** And the Inhibition of active sites (% control): Trypsin-like sites, 1 h; KMS-12-BM, 33 nM carfilzomib [8]?
**A.** Its Inhibition of active sites (% control): Trypsin-like sites, 1 h; KMS-12-BM, 33 nM carfilzomib is 0%.

**Q.** What about the Inhibition of active sites (% control): Trypsin-like sites, 1 h; KMS-12-BM, 100 nM carfilzomib [8] of the same substance?
**A.** Its Inhibition of active sites (% control): Trypsin-like sites, 1 h; KMS-12-BM, 100 nM carfilzomib is 18%.

**Q.** And the Inhibition of active sites (% control): Trypsin-like sites, 1 h; KMS-12-BM, 300 nM carfilzomib [8]?
**A.** Its Inhibition of active sites (% control): Trypsin-like sites, 1 h; KMS-12-BM, 300 nM carfilzomib is 49%.

**Q.** What about the Inhibition of active sites (% control): Trypsin-like sites, 1 h; KMS-12-BM, 900 nM carfilzomib [8] of the same substance?
**A.** Its Inhibition of active sites (% control): Trypsin-like sites, 1 h; KMS-12-BM, 900 nM carfilzomib is 75%.

**Q.** And the Inhibition of active sites (% control): Trypsin-like sites, 1 h; NCI-H929, 3.7 nM carfilzomib [8]?
**A.** Its Inhibition of active sites (% control): Trypsin-like sites, 1 h; NCI-H929, 3.7 nM carfilzomib is -7%.

**Q.** What about the Inhibition of active sites (% control): Trypsin-like sites, 1 h; NCI-H929, 11 nM carfilzomib [8] of the same substance?
**A.** Its Inhibition of active sites (% control): Trypsin-like sites, 1 h; NCI-H929, 11 nM carfilzomib is 0%.

**Q.** And the Inhibition of active sites (% control): Trypsin-like sites, 1 h; NCI-H929, 33 nM carfilzomib [8]?
**A.** Its Inhibition of active sites (% control): Trypsin-like sites, 1 h; NCI-H929, 33 nM carfilzomib is 17%.

**Q.** And the Inhibition of active sites (% control): Trypsin-like sites, 6 h -NC-022; KMS-12-BM, 11 nM carfilzomib [8]?
**A.** The Inhibition of active sites (% control): Trypsin-like sites, 6 h -NC-022; KMS-12-BM, 11 nM carfilzomib was 5%.

**Q.** And the Inhibition of active sites (% control): Trypsin-like sites, 6 h -NC-022; KMS-12-BM, 33 nM carfilzomib [8]?
**A.** Its Inhibition of active sites (% control): Trypsin-like sites, 6 h -NC-022; KMS-12-BM, 33 nM carfilzomib is 45%.

**Q.** What about the Inhibition of active sites (% control): Trypsin-like sites, 6 h -NC-022; KMS-12-BM, 100 nM carfilzomib [8] of the same substance?
**A.** Its Inhibition of active sites (% control): Trypsin-like sites, 6 h -NC-022; KMS-12-BM, 100 nM carfilzomib is 62%.

**Q.** What about the Inhibition of active sites (% control): Trypsin-like sites, 6 h -NC-022; KMS-12-BM, 300 nM carfilzomib [8] of the same substance?
**A.** Its Inhibition of active sites (% control): Trypsin-like sites, 6 h -NC-022; KMS-12-BM, 300 nM carfilzomib is 69%.

**Q.** And the Inhibition of active sites (% control): Trypsin-like sites, 6 h -NC-022; KMS-12-BM, 900 nM carfilzomib [8]?
**A.** The Inhibition of active sites (% control): Trypsin-like sites, 6 h -NC-022; KMS-12-BM, 900 nM carfilzomib was 72%.

**Q.** And the Inhibition of active sites (% control): Trypsin-like sites, 6 h -NC-022; NCI-H929, 3.7 nM carfilzomib [8]?
**A.** Its Inhibition of active sites (% control): Trypsin-like sites, 6 h -NC-022; NCI-H929, 3.7 nM carfilzomib is 3%.

**Q.** And the Inhibition of active sites (% control): Trypsin-like sites, 6 h -NC-022; NCI-H929, 11 nM carfilzomib [8]?
**A.** Its Inhibition of active sites (% control): Trypsin-like sites, 6 h -NC-022; NCI-H929, 11 nM carfilzomib is 39%.

**Q.** What about the Inhibition of active sites (% control): Trypsin-like sites, 6 h -NC-022; NCI-H929, 33 nM carfilzomib [8] of the same substance?
**A.** Its Inhibition of active sites (% control): Trypsin-like sites, 6 h -NC-022; NCI-H929, 33 nM carfilzomib is 46%.
